Measured values published in article PMC4359245 (Oncotarget, 2014).

Tests used:
[1] = format: physicochemical; settings: spiked into HuPrP-Tg mouse brain homogenate, RT 12 h, 10-60% sucrose step gradient, 200,000 x g, 1 h, 4°C, western blot 6E10; for Sucrose gradient fractions holding the majority of the peptide: 12 fractions from top
[2] = Negative-stain electron microscopy of synthetic Aβ with and without PK digestion; format: physicochemical; settings: for Fibrils seen by electron microscopy after PK digestion: PK-treated peptide preparations, negative stain EM; for Fibril formation and morphology by electron microscopy: peptide in PBS, without PK, negative stain 2% uranylacetate, 80 kV
From the text: To further rule out this possibility, PK-treated peptides were also examined by EM.
The excess buffered-protein solution was removed, and negatively stained with 2% uranylacetate. Grids were then washed by touching a buffer and the excess buffer blotted off immediately using a Whatman filter paper. Grids were then air-dried and kept at room temperature. Negatively stained specimens were observed by a JEOL 1200EX electron microscope (JEOL, Tokyo, Japan) with 80 kV of electron acceleration voltage.

proteinase K [3] = biological target: T1, proteinase K (Parengyodontium album, UniProt P06873); experiment: Proteinase K digestion of synthetic Aβ in lysis buffer, western blot; format: in vitro ADME; settings: 1 h, 37°C, western blot 6E10; for Immunoreactivity with 6E10 after PK digestion (PK sensitivity): peptide in 1X PBS diluted in 1X lysis buffer, no DMSO, smallest amount of PK 5 μg/ml (range 0-50 μg/ml); for PK sensitivity of peptides dissolved in DMSO: 1X lysis buffer, PK 0-50 μg/ml
T1 sequence (P06873 106-384): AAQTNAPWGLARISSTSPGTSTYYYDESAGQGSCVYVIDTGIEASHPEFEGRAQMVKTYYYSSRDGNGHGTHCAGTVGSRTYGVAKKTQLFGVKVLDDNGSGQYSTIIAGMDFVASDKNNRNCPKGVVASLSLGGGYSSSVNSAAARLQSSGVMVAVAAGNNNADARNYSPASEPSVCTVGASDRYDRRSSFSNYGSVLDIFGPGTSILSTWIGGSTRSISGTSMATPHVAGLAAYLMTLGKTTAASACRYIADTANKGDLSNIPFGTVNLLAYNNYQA

proteinase K [4] = biological target: T1, proteinase K; experiment: Proteinase K digestion of synthetic Aβ spiked into non-AD brain homogenate; settings: spiked into non-AD brain homogenate with no detectable endogenous Aβ; P2 fraction; PK 0-50 μg/ml, 1 h, 37°C; western blot 6E10
[5] = pH 7.5

| Substance | Sucrose gradient fractions holding the majority of the peptide [1] | Large aggregates in bottom fractions 10-12 of the sucrose gradient [1] | Fibrils seen by electron microscopy after PK digestion [2] | Fibril formation and morphology by electron microscopy [2] | Immunoreactivity with 6E10 after PK digestion (PK sensitivity) (proteinase K [3]) | PK sensitivity of peptides dissolved in DMSO (proteinase K [3]) | PK resistance of spiked peptide (PK concentration resisted) (proteinase K [4]) [µg/mL] | Detergent solubility: fraction in which the peptide is detected (S2 supernatant = soluble, P2 pellet = insoluble) [5] |
| --- | --- | --- | --- | --- | --- | --- | --- | --- |
| Aβ42: synthetic amyloid β peptide Aβ42 purchased from Sigma | between fractions 1 and 3 | smaller amounts | no fibrils or significant structures could be observed | numerous but short fibrils | No immunoreactivity | PK-sensitive | ≥ 50 |  |
| Aβ40: synthetic amyloid β peptide Aβ40 purchased from Sigma | between fractions 1 and 3 | detected in significant amounts in fractions 10 to 12 | no fibrils or significant structures could be observed | relatively scarce but much longer | No immunoreactivity | PK-sensitive | ≥ 50 | only in the S2 but not in the P2 |
